According to US20180298070A1, “PEPTIDE COMPOUND” (Takeda Pharmaceutical Company Limited, published 2018):
Non-standard residues stand in square brackets, D forms with d. Groups on a side chain read outwards from the residue. Primed or numbered codes have the meaning given here. No end group written: not given here. *: point of attachment. NMeY = CN[C@@H](Cc1ccc(O)cc1)C(=O)O; αMeF = C[C@](N)(Cc1ccccc1)C(=O)O; Myristoyl = CCCCCCCCCCCCCC(=O)*; Undecanoyl = CCCCCCCCCCC(=O)*; Lauroyl = CCCCCCCCCCCC(=O)*; Decanoyl = CCCCCCCCCC(=O)*; dIva = CC[C@@](C)(N)C(=O)O; Iva = CC[C@](C)(N)C(=O)O; PEG2′ = not defined here; PEG4′ = not defined here; Hexanoyl = CCCCCC(=O)*; Aib = CC(C)(N)C(=O)O

T1: human GIPR (human), P48546
T1 chain: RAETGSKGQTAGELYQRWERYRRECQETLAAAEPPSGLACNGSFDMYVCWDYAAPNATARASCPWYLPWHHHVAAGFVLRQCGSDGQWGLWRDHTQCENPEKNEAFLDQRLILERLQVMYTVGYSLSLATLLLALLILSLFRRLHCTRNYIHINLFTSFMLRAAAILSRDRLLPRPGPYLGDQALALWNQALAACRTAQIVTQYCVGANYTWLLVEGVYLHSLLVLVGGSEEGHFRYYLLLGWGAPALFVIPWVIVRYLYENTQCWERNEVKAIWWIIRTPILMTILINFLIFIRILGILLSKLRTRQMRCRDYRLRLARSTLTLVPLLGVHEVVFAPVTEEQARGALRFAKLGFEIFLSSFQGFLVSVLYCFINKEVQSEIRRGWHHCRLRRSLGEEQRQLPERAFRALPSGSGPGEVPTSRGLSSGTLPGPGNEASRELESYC

T2: human GLP-1R (human), P43220
T2 chain: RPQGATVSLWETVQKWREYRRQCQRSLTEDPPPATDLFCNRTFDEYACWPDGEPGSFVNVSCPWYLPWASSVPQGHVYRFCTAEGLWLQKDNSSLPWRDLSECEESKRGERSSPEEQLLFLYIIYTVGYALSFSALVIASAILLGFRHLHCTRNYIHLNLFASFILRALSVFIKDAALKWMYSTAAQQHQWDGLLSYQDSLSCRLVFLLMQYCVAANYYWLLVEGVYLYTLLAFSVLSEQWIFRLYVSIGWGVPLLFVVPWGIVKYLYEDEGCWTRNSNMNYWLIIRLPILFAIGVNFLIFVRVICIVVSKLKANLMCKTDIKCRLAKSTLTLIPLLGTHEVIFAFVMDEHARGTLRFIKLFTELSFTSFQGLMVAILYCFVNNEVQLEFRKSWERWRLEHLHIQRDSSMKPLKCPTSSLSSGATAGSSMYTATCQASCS


Key:
[1] = biological target: T1, human GIPR (human), P48546
[2] = biological target: T2, human GLP-1R (human), P43220

Binder | Agonist activity (EC50, M) [1] | Agonist activity (EC50, M) [2]
Y[Aib]EGTFISDYSK([PEG(2)-Lauroyl])ALDRIHQ[Aib]NFVNWLLAQRPSSGAPPPS (ends and bridges not checked) [Compound 209] | 4.3e-12 M | > 1e-06 M
Y[Aib]EGTFISDYSK([PEG(2)-Pal])ALDRIHQQDFVNWLLAQRPSSGAPPPS (ends and bridges not checked) [Compound 172] | 2e-12 M | > 1e-06 M
Y[Aib]EGTFISDYSK([PEG(2)-Lauroyl])ALDRIHQQDFVNWLLAQRPSSGAPPPS (ends and bridges not checked) [Compound 175] | 3.5e-12 M | > 1e-06 M
Me-Y[Aib]EGTFISDYSIALDRIAQ[Aib]D[αMeF]VNWLLAQRPSSGAPPPSR (not fully specified (residue 1, C-terminus); ends and bridges not checked) [Compound 135] | 1.8e-12 M | > 1e-06 M
Y[Aib]EGTFISDYSK([PEG(2)-Lauroyl])[dIva]LDRIAQQDFVNWLLAQRPSSGAPPPS (ends and bridges not checked) [Compound 206] | 2.1e-11 M | > 1e-06 M
Y[Aib]EGTFISDYSK([PEG2′-Lauroyl])ALDR[Aib]AQ[Aib]NFVNW[Iva]LAQRPSSGAPPPS (not fully specified (C-terminus); ends and bridges not checked) [Compound 211] | 3.4e-12 M | 2.6e-08 M
Y[Aib]EGTFISDYSK([PEG(2)-Hexanoyl])ALDRIHQQDFVNWLLAQRPSSGAPPPS (ends and bridges not checked) [Compound 174] | 4.2e-12 M | > 1e-06 M
Y[Aib]EGTFISDYSK([PEG(2)-Lauroyl])ALDRIAQQDFVNWLLAQRPSSGAPPPS (ends and bridges not checked) [Compound 192] | 6.5e-12 M | 1.5e-08 M
Ac-Y[Aib]EGTFISDYSIALDR[Aib]HQ[Aib]NFVNW[Iva]LAQRPSSGAPPPSR (ends and bridges not checked) [Compound 156] | 4.8e-12 M | > 1e-06 M
Y[Aib]EGTFISDYSK([PEG(2)-Lauroyl])ALDRIAQQD[αMeF]VNWLLAQRPSSGAPPPS (ends and bridges not checked) [Compound 202] | 4.6e-12 M | 1.8e-07 M
Me-Y[Aib]EGTFISDYSI[dIva]LDRIHQ[Aib]NFVNW[Iva]LAQRPSSGAPPPSR (not fully specified (residue 1, C-terminus); ends and bridges not checked) [Compound 147] | 1.5e-12 M | > 1e-06 M
Y[Aib]EGTFISDYSK([PEG2′-Lauroyl])ALDR[Aib]AQQD[αMeF]VNWLLAQRPSSGAPPPS (not fully specified (C-terminus); ends and bridges not checked) [Compound 213] | 3.1e-12 M | 5.4e-08 M
Y[Aib]EGTFISDYSK([PEG2′-Decanoyl])ALDRIAQQDFVNWLLAQRPSSGAPPPSR (ends and bridges not checked) [Compound 182] | 3.3e-12 M | 4.8e-08 M
[NMeY][Aib]EGTFISDYSI[dIva]LDRIAQQSFVNWLLAQRPSSGAPPPSR (not fully specified (N-terminus, C-terminus); ends and bridges not checked) [Compound 138] | 2.2e-12 M | > 1e-06 M
Y[Aib]EGTFISDYSK([PEG(2)-Lauroyl])ALDRIHQQD[αMeF]VNWLLAQRPSSGAPPPS (ends and bridges not checked) [Compound 208] | 6.1e-12 M | > 1e-06 M
Y[Aib]EGTFISDYSK([PEG(4)-Pal])ALDRIAQQDFVNWLLAQRPSSGAPPPSR (ends and bridges not checked) [Compound 190] | 2.1e-11 M | > 1e-06 M
Y[Aib]EGTFISDYSK([PEG2′-Lauroyl])ALDRIHQ[Aib]N[αMeF]VNW[Iva]LAQRPSSGAPPPS (not fully specified (C-terminus); ends and bridges not checked) [Compound 216] | 4.8e-12 M | 1.5e-07 M
Y[Aib]EGTFISDYSK([PEG(2)-Lauroyl])ALDR[Aib]AQQDFVNWLLAQRPSSGAPPPSR (ends and bridges not checked) [Compound 198] | 4.5e-12 M | 2.8e-08 M
Ac-Y[Aib]EGTFISDYSIALDRIAQ[Aib]S[αMeF]VNW[Iva]LAQRPSSGAPPPSR (ends and bridges not checked) [Compound 155] | 1.7e-12 M | > 1e-06 M
[NMeY][Aib]EGTFISDYSI[dIva]LDRIHQQDFVNWLLAQRPSSGAPPPSR (not fully specified (N-terminus, C-terminus); ends and bridges not checked) [Compound 144] | 2.2e-12 M | > 1e-06 M
Y[Aib]EGTFISDYSK([PEG4′-Lauroyl])ALDRIAQQDFVNWLLAQRPSSGAPPPSR (ends and bridges not checked) [Compound 189] | 6.8e-12 M | 2.7e-08 M
Y[Aib]EGTVVSLYSI[Aib]LDKQAQ[Aib]EFVKWLLKGK([PEG(2)-Pal]) (ends and bridges not checked) [Compound 162] | 2.7e-10 M | > 1e-06 M
[NMeY][Aib]EGTFISDYSIALDRIHQQD[αMeF]VNWLLAQRPSSGAPPPSR (not fully specified (N-terminus, C-terminus); ends and bridges not checked) [Compound 141] | 1.9e-12 M | > 1e-06 M
Y[Aib]EGTFISDYSK([PEG2′-Undecanoyl])ALDRIAQQDFVNWLLAQRPSSGAPPPSR (ends and bridges not checked) [Compound 183] | 3.4e-12 M | 3.3e-08 M
Y[Aib]EGTFISDYSK([PEG2′-Lauroyl])ALDRIAQQDFVNWLLAQRPSSGAPPPSR (ends and bridges not checked) [Compound 184] | 3.6e-12 M | 3e-08 M
Y[Aib]EGTFISDYSK([PEG2′-Myristoyl])ALDRIAQQDFVNWLLAQRPSSGAPPPSR (ends and bridges not checked) [Compound 186] | 6.4e-12 M | 1.3e-08 M
[NMeY][Aib]EGTFISDYSIALDRIHQ[Aib]NFVNWLLAQRPSSGAPPPSR (not fully specified (N-terminus, C-terminus); ends and bridges not checked) [Compound 142] | 2.3e-12 M | > 1e-06 M
Me-Y[Aib]EGTFISDYSIALDRIAQQNFVNW[Iva]LAQRPSSGAPPPSR (not fully specified (residue 1, C-terminus); ends and bridges not checked) [Compound 133] | 1.7e-12 M | > 1e-06 M
